Experimental findings from patent publication US7964700B2, “Inhibitors of Taspase1 protease activity” (Dana-Farber Cancer Institute, Inc., priority 2003, dated 2011) are described below.

No end group written: not given here.

This experiment deals with T1, rTaspase1 (Homo sapiens, UniProt Q9H6P5).
T1 construct: Full-length Taspase1 was cloned from 293T cell cDNA and inserted into the Myc/Flag doubly-tagged expression vector; made in house; host or cells: E. coli BL21(DE3)
T1 sequence (Q9H6P5 1-233): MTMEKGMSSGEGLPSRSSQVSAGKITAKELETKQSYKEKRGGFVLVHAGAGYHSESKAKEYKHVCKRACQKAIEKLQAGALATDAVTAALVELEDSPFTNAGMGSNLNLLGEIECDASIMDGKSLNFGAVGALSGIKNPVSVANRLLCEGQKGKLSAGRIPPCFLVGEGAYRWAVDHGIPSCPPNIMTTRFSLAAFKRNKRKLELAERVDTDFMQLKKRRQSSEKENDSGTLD
T1 sequence (Q9H6P5 234-420): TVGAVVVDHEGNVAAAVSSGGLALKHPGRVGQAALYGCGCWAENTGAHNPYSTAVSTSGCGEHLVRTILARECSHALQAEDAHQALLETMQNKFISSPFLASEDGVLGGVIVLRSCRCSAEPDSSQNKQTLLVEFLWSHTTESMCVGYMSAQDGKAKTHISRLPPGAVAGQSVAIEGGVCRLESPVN
The experiment can be described thus: In vitro cleavage assay: labeled MLL substrate incubated with rTaspase1 and peptide inhibitor, SDS-PAGE and autoradiography. The experiment is classed as biochemical. Conditions: for inhibitory effect on the rTaspase1 enzyme (MLL substrate cleavage) / dose response: effectiveness of polypeptide-aldehyde Taspase1 inhibitors: 5 ng rTaspase1, 20 minutes; for inhibitory effect on the rTaspase1 enzyme (MLL substrate cleavage): then labeled substrate 60 minutes at 37° C.; for dose response: effectiveness of polypeptide-aldehyde Taspase1 inhibitors: concentrations of FIGS. 11A-11C. The procedure: Polypeptides of varying length (i.e., 4 to 7 amino acids in length) were prepared to identify preferred lengths and sequences of polypeptide inhibitors of Taspase1. The polypeptide inhibitors were based on the amino acid sequence that includes a upstream portion of the CS2 cleavage site of MLL as well as a portion of the CS2 cleavage site (See FIG. 1B and FIG. 9). The peptide inhibitors were purchased from Tufts University Peptide Core Facility and AnaSpec Inc. of San Jose, Calif. 1 mM of each of the inhibitors was incubated with 5 ng of rTaspase1 for 20 minutes before adding labeled substrate for another 60 minutes at 37° C. The results were analyzed by SDS-PAGE followed by autoradiography.
In order to determine a preferred length of polypeptide inhibitors of Taspase1, dose responses were tested for a six amino acid polypeptide inhibitor (KISQLA) (SEQ ID NO:8) and a five amino acid polypeptide inhibitor (ISQLA) (SEQ ID NO:7). The polypeptides were incubated at the concentrations depicted in FIG. 10 with 5 ng of rTaspase1 for 20 minutes before adding labeled MLL substrate for another 60 minutes at 37° C. The results were analyzed by SDS-PAGE followed by autoradiography.
Three modified polypeptide inhibitors were prepared wherein the carboxy terminals of the polypeptides were replaced with an aldehyde (SQLA-aldehyde (SEQ ID NO:17), SQLD-aldehyde (SEQ ID NO:9), and KISQLD-aldehyde (SEQ ID NO:11)). Chemical syntheses of these modified polypeptides is well known to one of skill in the art, and the modified polypeptides are also are available commercially at AnaSpec Inc. of San Jose, Calif. The polypeptides were incubated in the concentrations depicted in FIGS. 11A-11C with 5 ng of rTaspase1 for 20 minutes before adding labeled MLL substrate for another 60 minutes at 37° C. The results were analyzed by SDS-PAGE followed by autoradiography. […] Accordingly, the modified polypeptides can keep the active site of the enzyme occupied for a greater length of time, blocking entrance of the MLL substrate from entering the active site as required for cleavage. […] (See FIG. 11C.).
^35S-methionine labeled MLL substrate was incubated with 2 μl of indicated subcellular fractions or specified amounts of rTaspase1 in cleavage buffer (100 mM HEPES [pH 7.9], 5 mM MgCl2, 20 mM KCl, 5 mM DTT, and 10% sucrose) for 1 hour at 37° C. or indicated periods of time. Protease inhibitors utilized include 8.5 μM Phosphoramidon, 100 μM TLCK, 100 μM TPCK, 5 mM Iodoacetamide, 5 mM N-Ethylmaleimide, 0.3 μM Aprotinin, 100 μM Leupeptin, 1 μM Pepstatin, 1× Complete protease inhibitor cocktail (Roche), 100 μM Antipain, 100 μM APMSF, 10 μM Bestatin, 25 μM ALLN, 100 μM Chymostatin, […] E-64, 5 mM EDTA, 1 mM PMSF, 1 mM EGTA, 50 μM BAF (Boc-Aspartyl-FMK), and 50 μM z-VAD (z-VAD-FMK).

Where [1] appears, read: then labeled MLL substrate 60 minutes at 37° C.

“Ile-Ser-Gln-Leu-Ala (ISQLA; listed as Homo sapiens)”: the “dose response: effectiveness as Taspase1 inhibitor, five versus six amino acid polypeptide” value (concentrations of FIG. 10, 5 ng rTaspase1, 20 minutes, then labeled MLL substrate 60 minutes at 37° C.) is given as “more effective inhibitor at lower concentrations than the corresponding six amino acid polypeptide”. In the case of “Ile-Ser-Gln-Leu-Asp (ISQLD; listed as Homo sapiens)”, the “inhibitory effect on the rTaspase1 enzyme (MLL substrate cleavage)” value (from here on “inhibitory effect”) (1 mM inhibitor, FIG. 9) was “little inhibitory effect”. As for “KISQA: polypeptide with P1 alanine and omission of the leucine residue at P2 (listed as Homo sapiens)”, the “inhibitory effect” value (1 mM inhibitor, FIG. 9) is listed as “inhibitory effect was observed”. Besides, the “inhibition of rTaspase1 relative to ISQLA (P2 leucine omitted)” value (1 mM inhibitor, 5 ng rTaspase1, FIG. 9) is listed as “significantly decreased inhibition”. As for KISQLA, the “inhibitory effect” value (1 mM inhibitor, FIG. 9) is “inhibitory effect was observed”.

With “KISQLD: six amino acid polypeptide based on the sequence upstream of the CS2 cleavage site of MLL (listed as Homo sapiens)”, the “inhibitory effect” value (1 mM inhibitor, FIG. 9) is given as “little inhibitory effect”. Turning to “KISdQLA: polypeptide where the P1 aspartate residue was substituted for an alanine residue (KISDQLA; not fully specified (residue 4); printed as KISdQLA; listed as Homo sapiens)”, the “inhibitory effect” value (1 mM inhibitor, FIG. 9) is on record as “inhibitory effect was observed”.

“Lys-Ile-Ser-Gln-Leu-Asp-aldehyde (KISQLD-aldehyde)”: the “dose response: effectiveness of polypeptide-aldehyde Taspase1 inhibitors” value under setting [1] is on record as “more effective than both of the four amino acid aldehyde”. Regarding “SQLD: four amino acid polypeptide based on the sequence upstream of the CS2 cleavage site of MLL (listed as Homo sapiens)”, the “inhibitory effect” value (1 mM inhibitor, FIG. 9) is on record as “little inhibitory effect”. In the case of “Ser-Gln-Leu-Asp-aldehyde (SQLD-aldehyde)”, the “dose response: effectiveness of polypeptide-aldehyde Taspase1 inhibitors” value under setting [1] was “more effective inhibitor than the SQLA-aldehyde”.
